Among the data in doi:10.1101/2023.08.28.555145 are stoichiometry N values, retold here.

Experiment [1] concerns the target UPP-G224L, recombinant (Arabidopsis thaliana). Briefly: SEC.
Experiment [2] has as its target Arabidopsis uracil phosphoribosyltransferase (UPP), wild type, recombinant (Arabidopsis thaliana). Briefly: SEC.

Consider UPP-G224L, recombinant (enzyme), for which the stoichiometry N in experiment [1] stood at 2.
For “Arabidopsis uracil phosphoribosyltransferase (UPP), wild type, recombinant (enzyme)”, the stoichiometry N in experiment [2] was found to be 4.
